Target: LEL CD81-SA labelled with Cy3 (UniProt P60033)
Assay: dynamic light scattering + other: nanoparticle tracking analysis; nanotraps (LEL CD81-SA-Cy3 on PEG-b-PLA nanoparticles, 0.50 mg/mL) mixed with HC VMPs (E2-GFP on PEG-b-PLA nanoparticles, 0.15 mg/mL) in 0.01 M sodium phosphate buffer pH 7.4, 25 °C; aggregation monitored after 5, 10, 20 and 30 min

In the case of “chimeric E2 core-GFP protein (E2 core, 412-645 a.a., of hepatitis C virus fused with superfolder GFP) (from UniProt P27958 412-645) (domain or fragment)”, the percentage of aggregates (DLS, after 30 min) is reported as 33%.
